This is an account of results in US20220332804A1 (CSL INNOVATION, published 2022).

Where a chain is given by its changes, count along the chain named.

Test in all cases: SPR, mAb captured, C2 mutant analyte;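 also: Anti-C2 mAbs captured on goat anti-human IgG Biacore CM5 chips, alanine or serine C2 surface mutants flowed over at 37 °C, double-referenced sensorgrams fitted to a 1:1 binding model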
One assay addresses T1, human C2 D419A (human, UniProt P06681 21-752).
T1 sequence: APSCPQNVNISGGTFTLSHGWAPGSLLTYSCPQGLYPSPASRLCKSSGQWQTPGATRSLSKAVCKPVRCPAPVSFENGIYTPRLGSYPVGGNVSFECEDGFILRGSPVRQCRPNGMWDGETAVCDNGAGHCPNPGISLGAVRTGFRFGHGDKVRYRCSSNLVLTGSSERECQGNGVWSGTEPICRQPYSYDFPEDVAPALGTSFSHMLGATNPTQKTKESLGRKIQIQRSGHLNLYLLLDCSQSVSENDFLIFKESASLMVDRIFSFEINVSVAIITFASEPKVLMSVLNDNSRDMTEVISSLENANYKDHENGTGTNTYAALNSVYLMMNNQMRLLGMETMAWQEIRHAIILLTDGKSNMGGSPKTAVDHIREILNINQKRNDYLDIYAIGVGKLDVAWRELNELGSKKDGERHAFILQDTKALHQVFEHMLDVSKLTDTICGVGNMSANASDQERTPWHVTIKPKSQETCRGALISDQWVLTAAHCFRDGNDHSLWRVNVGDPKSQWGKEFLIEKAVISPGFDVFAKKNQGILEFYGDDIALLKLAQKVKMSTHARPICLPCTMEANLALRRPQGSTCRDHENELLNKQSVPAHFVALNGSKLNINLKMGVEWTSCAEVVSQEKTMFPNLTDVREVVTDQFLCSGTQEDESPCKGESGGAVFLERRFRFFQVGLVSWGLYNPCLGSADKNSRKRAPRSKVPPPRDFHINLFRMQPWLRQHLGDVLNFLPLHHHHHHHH

In another assay the target is T2, human C2 E324A (human, UniProt P06681 21-752).
T2 sequence: T1 sequence with E304A, A399D

The next assay deals with T3, human C2 D404A (human, UniProt P06681 21-752).
T3 sequence: T1 sequence with D384A, A399D

A further assay deals with T4, human C2 K274A (human, UniProt P06681 21-752).
T4 sequence: T1 sequence with K254A, A399D

B1: RF16-214 (antibody, V domains shown)
VH: EVQLLESGGGLVQPGGSLRLSCAASGFTFSWYQMMWVRQAPGKGLEWVSRIYPSGGGTAYADSVKGRFTISRDNSKNTLYLQMNSLRAEDTAVYYCARDAGYGDNWGQGTLVTVSS
VL: QSALTQPPSVSVSPGQTASITCSGDKLGEKYASWYQQKAGQSPVMVIYQDRKRPSGIPERFSGSNSGNTATLTISGTQAMDEADYYCQAWDTRAVVFGGGTKLTVLG
As to B1, the Kd in the assay with human C2 D419A turned out to be 70.7 nM; with human C2 E324A, 27.8 nM; with human C2 D404A, 77.6 nM. The binding result with human C2 K274A is recorded as “no binding”.
